According to US20250376511A1 (Sanofi, published 2025):
Positions count from the first letter of the chain named. Each block holds one binder with its values, some of them ahead of it.

How the values were obtained:
[1] = target: T1, cynomolgus TfR (cynomolgus, UniProt H9EXL1 89-760 (rhesus entry)); assay: affinity of bispecific purified from CHO cells (SPR; details not restated)
T1 construct: also called Cyno TfR; cTfR

[2] = target: T2, His-tagged recombinant human TfR (produced in-house) (human, UniProt P02786 89-760); assay: as above
T2 construct: also called hTfR; transferrin receptor 1

[3] = target: T3, cynomolgus aC1s (cynomolgus, UniProt A0A2K5VQX9 16-685); assay: as above
T3 construct: also called Cyno aC1s; caC1s
T3 sequence: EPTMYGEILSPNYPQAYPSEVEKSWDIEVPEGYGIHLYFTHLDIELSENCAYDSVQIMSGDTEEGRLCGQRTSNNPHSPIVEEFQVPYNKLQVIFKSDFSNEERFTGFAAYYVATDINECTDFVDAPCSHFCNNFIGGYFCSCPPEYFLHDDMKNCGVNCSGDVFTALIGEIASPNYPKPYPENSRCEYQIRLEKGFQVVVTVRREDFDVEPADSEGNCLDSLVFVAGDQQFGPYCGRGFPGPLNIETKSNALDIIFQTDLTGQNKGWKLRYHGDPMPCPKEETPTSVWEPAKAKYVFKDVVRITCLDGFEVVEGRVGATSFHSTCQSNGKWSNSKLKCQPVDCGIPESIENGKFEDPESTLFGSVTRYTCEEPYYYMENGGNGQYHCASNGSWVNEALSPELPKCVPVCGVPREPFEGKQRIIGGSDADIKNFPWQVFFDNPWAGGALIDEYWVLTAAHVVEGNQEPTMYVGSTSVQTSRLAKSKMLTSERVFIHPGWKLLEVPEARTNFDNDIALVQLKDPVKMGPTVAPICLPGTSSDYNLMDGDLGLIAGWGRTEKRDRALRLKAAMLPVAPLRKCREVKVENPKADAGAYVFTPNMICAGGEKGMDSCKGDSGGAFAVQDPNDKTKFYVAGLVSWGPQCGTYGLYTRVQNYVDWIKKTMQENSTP

[4] = target: T4, Human active C1s (Complement Technology) (human, UniProt P09871 16-688); assay: as above
T4 construct: In the functional assays the target is the C1s of human serum; also called aC1s; human aC1s
T4 sequence: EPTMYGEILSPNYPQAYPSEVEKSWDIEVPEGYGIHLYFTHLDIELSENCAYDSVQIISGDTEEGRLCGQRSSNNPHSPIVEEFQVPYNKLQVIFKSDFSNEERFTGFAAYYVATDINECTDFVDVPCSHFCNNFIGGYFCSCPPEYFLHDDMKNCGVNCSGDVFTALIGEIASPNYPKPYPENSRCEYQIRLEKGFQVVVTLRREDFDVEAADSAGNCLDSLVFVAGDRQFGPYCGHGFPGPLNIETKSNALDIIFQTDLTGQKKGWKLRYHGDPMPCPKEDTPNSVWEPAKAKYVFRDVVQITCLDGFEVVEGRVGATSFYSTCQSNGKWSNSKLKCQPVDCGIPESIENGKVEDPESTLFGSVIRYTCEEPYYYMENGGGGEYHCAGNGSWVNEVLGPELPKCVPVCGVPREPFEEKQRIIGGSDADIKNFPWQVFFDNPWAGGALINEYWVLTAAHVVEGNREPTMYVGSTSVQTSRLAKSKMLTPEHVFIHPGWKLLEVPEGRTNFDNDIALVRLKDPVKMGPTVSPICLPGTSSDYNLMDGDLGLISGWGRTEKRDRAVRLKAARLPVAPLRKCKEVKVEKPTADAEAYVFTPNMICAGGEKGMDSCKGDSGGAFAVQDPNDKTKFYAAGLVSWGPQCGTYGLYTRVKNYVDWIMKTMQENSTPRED

[5] = target: T4, Human active C1s (Complement Technology); assay: cell-based or functional assay
[6] = target: T4, Human active C1s (Complement Technology); assay: cell-based or functional assay; remark: listed apart in the source
[7] = target: T4, Human active C1s (Complement Technology); assay: cell-based or functional assay; remark: listed apart in the source
[8] = target: T2, His-tagged recombinant human TfR …; assay: hTfR affinity, SPR (method not restated for Table 1; same value as Table 2)
Protocol: (§1) TfR and C1s binding using surface plasmon resonance (SPR): Analysis of antibody binding to TfR was performed on a Biacore™ T200 instrument using anti-His capture at 25° C. Anti-His (Qiagen) was buffer exchanged into PBS pH 7.2, diluted to 25 μg/mL in 10 mM sodium acetate pH 4.0 and directly immobilized to a series S CM5 chip to a surface density of ˜10,000 RU using the amine coupling kit provided by Cytiva. His-tagged recombinant human TfR (produced in-house) was diluted in HBS-EP+ pH 7.4 running buffer (10 mM HEPES pH 7.4, 150 mM NaCl, 3 mM EDTA, 0.05% surfactant P20) and injected for 5 sec at 20 μL/min flowrate to obtain capture level of 20 RU. Antibodies were serially diluted 2-fold from 90 to 5.625 nM in running buffer and injected over the captured TfR for 3 min followed by 9 min dissociation in buffer at 30 μL/min. Each cycle was regenerated with 10 mM glycine pH 1.5. To measure C1s binding, anti-human Fc (Jackson) was directly immobilized to a CM5 chip using amine chemistry. Antibodies were diluted to 2.5 μg/mL in HBS-EP+ pH 7.4 and captured to the chip for 15 sec at 20 μL/min flowrate. Human active C1s (Complement Technology) was serially diluted 2-fold from 20 to 0.625 nM in running buffer and injected over the captured antibodies for 180 sec at 50 μL/min followed by 9 min dissociation in buffer. The bound complex was removed from the chip each cycle with 40 mM HCl and 0.85% phosphoric acid. Sensorgrams were processed using the Biacore™ Insight software and fit to a 1:1 binding model to obtain kinetic constants.
(§2) The six bispecific anti-aC1s/anti-TfR antibodies were first tested for their affinity for both TfR and aC1s via surface plasmon resonance (SPR) (Table 2).

[9] = target: T2, His-tagged recombinant human TfR …; assay: SPR Biacore T200, His-tagged human TfR captured on anti-His, antibody as analyte, 25 C, 1:1 fit
Protocol: as §1, §2

[10] = target: T4, Human active C1s (Complement Technology); assay: SPR Biacore T200, antibody captured on anti-human Fc, human active C1s as analyte, 1:1 fit
Protocol: as §1, §2

[11] = target: T2, His-tagged recombinant human TfR …; assay: SPR Biacore T200 (Table 2)
Protocol: as §1, with “The bound complex was removed from the chip each cycle with 40 mM HCl and 0.85% phosphoric acid. Sensorgrams were processed using the Biacore™ Insight software and fit to a 1:1 binding model to obtain kinetic constants.” left out

T2 sequence (P02786 89-760 limits assumed): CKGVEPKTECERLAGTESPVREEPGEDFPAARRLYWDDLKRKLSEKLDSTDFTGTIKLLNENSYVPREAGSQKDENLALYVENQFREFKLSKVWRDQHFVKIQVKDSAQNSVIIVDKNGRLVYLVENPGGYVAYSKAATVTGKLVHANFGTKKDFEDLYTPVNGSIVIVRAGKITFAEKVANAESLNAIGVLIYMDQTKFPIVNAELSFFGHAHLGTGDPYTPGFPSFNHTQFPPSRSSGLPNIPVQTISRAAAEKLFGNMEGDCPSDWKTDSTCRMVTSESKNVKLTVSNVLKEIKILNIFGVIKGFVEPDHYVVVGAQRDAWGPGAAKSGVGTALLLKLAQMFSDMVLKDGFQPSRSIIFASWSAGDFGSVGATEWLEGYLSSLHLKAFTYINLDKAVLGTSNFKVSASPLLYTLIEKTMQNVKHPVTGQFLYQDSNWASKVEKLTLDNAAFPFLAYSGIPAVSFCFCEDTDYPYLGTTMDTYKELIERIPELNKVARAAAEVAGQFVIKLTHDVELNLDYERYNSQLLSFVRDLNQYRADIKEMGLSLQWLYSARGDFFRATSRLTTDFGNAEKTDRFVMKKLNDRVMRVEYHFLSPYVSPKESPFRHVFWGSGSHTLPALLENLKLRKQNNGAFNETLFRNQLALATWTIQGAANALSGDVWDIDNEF
T1 sequence (chain, as listed by the source): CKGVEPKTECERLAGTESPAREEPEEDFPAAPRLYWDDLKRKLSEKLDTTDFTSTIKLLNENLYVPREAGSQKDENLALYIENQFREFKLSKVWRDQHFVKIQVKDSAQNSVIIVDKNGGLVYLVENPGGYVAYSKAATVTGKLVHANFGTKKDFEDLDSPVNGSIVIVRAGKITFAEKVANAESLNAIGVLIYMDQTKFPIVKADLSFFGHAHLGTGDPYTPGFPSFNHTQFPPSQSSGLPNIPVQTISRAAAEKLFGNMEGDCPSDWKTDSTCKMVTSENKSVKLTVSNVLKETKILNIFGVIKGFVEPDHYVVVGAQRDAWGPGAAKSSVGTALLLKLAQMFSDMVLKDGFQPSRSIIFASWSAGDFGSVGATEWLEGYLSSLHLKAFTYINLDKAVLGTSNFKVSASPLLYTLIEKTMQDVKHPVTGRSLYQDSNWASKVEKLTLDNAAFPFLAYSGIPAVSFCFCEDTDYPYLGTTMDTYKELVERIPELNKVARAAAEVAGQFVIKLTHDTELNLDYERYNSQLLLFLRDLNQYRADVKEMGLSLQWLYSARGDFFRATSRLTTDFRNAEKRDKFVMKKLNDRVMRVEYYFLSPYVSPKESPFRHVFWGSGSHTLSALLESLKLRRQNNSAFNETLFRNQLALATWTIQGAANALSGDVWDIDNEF

B1: bispecific anti-aC1s (L4H5)/anti-TfR (531v25.v6) antibody (bispecific antibody, human IgG4 S228P, kappa)
heavy 1: QVQLVQSGAEVKKPGASVKLSCTASGFNIKDDYIHWVKEAPGQGLEWIGRIDPADGHTKYAPKFQVKVTITAATSTSTAYLQLSSLRSEDTAVYYCARYGYGREVFDYWGQGTTVTVSSASTKGPSVFPLAPCSRSTSESTAALGCLVKDYFPEPVTVSWNSGALTSGVHTFPAVLQSSGLYSLSSVVEVPSSSLGTKTYTCNVDHKPSNTKVDERVESDYGPPCPPCPAPEFEGGPSVFLFPPKPKDTLMISRTPEVTCVVVDVSQEDPEVQFNWYVDGVEVHNAKTKPREEQFNSTYRVVSVLTVLHQDWLNGKEYKCKVSNKGLPSSIEKTISKAKGQPREPQVCTLPPSQEEMTKNQVSLSCAVKGFYPSDIAVEWESNGQPENNYKTTPPVLDSDGSFFLVSRLTVDKSRWQEGNVFSCSVLHEALHSRFTQKSLSLSLG
light 1: DIVMTQSPDSLAVSLGERATISCKSSQSVDYEGDSYLNWYQKKPGQPPKLLIYDASNLESGVPDRFSGSGSGTDFTLTISSLQAEDVAVYYCQQSNEDPWTFGQGTKVEIKRTVAAPAVFIFPPSKKQLKSGTASVVCLLKNFYPREAKVQWKVDNALQSGNSQESVTEQDSKDSTYSLSSTLTLSKADYEKHKVYACEVTHQGLSSPVTKSFNRGEC
heavy 2: QVQLVQSGAEVKKPGASVKVSCKASGYTFTRYYLNWVRKAPGQGLEWIGMIDPSVSETHYAQKFQGRATLTVDKSTSTAYMELSSLRSEDTAVYYCSQIRLPYYYAMDSWGQGTTVTVSSASTKGPSVFPLAPCSRSTSESTAALGCLVKDYFPEPVTVSWNSGALTSGVHTFPAVLQSSGLYSLSSVVTVPSSSLGTKTYTCNVDHKPSNTKVDKRVESKYGPPCPPCPAPEFEGGPSVFLFPPKPKDTLMISRTPEVTCVVVDVSQEDPEVQFNWYVDGVEVHNAKTKPREEQFNSTYRVVSVLTVLHQDWLNGKEYKCKVSNKGLPSSIEKTISKAKGQPREPQVYTLPPCQEEMTKNQVSLWCLVKGFYPSDIAVEWESNGQPENNYKTTPPVLDSDGSFFLYSRLTVDKSRWQEGNVFSCSVLHEALHSHYTQKSLSLSLG
light 2: DIQMTQSPSSLSASVGDRVTITCRASQDIESFLNWYQEKPGKAPKLLIYYTSRLQSGVPSRFSGSGSGTDYTLTISSLQPEDFATYYCQQGNTLPRTFGGGTKVEIKRTVAAPSVFIFPPSDEQLKSGTASVVCLLNNFYPREAKVQWKVDNALQSGNSQESVTEQDSKDSTYSLSSTLTLSKADYEKHKVYACEVTHQGLSSPVTKSFNRGEC
notes: Purified from CHO cells; monovalent for aC1s
Kd [1]: 72.5 nM | Kd [2]: 39.3 nM | Kd [3]: 0.252 nM | Kd [4]: 2.26 nM | IC50, Wieslab Complement Pathway Assay [5]: 1.04 µg/mL | IC90, Wieslab Complement Pathway Assay [5]: 7.55 µg/mL

B4: aC1s_088 × 531v25 IgG4-PE/dK (bispecific antibody, V domains shown)
VH 1: QVQLVQSGAEVKKPGASVKLSCTASGFNIKDDYIHWVKEAPGQGLEWIGRIDPADGHTKYAPKFQVKVTITADTSTSTAYLELSSLRSEDTAVYYCARYGYGREVFDYWGQGTTVTVSS
VL 1: DIVLTQSPDSLAVSLGERATISCKASQSVDYDGDSYMNWYQKKPGQPPKILIYDASNLESGIPARFSGSGSGTDFTLTISSLEPEDFAIYYCQQSNEDPWTFGGGTKVEIK
VH 2: QVQLVQSGAEVKKPGASVKVSCKASGYTFTRYYLNWVRKAPGQGLEWIGMIDPSVSETHYAQKFQGRATLTVDKSTSTAYMELSSLRSEDTAVYYCSQIRLPYYYAMDSWGQGTTVTVSS
VL 2: DIQMTQSPSSLSASVGDRVTITCRASQDISSFLNWYQEKPGKAPKLLIYYTSRLQSGVPSRFSGSGSGTDYTLTISSLQPEDFATYYCQQGNTLPRTFGGGTKVEIK
notes: IgG4-PE Fc, dK, with charge pairing mutations; The starred variable domains are used, as for m5; also called aC1s_088-CM × 531v25 IgG4
IC50, C3d deposition on neurons in iPSC tricultures with serum [6]: 29.3 µg/mL | IC50, Wieslab Complement Pathway Assay (classical pathway, 1% NHS) [7]: 1.63 µg/mL | Kd [8]: 22.6 nM | Kd [9]: 22.6 nM | koff [9]: 0.00413 s⁻¹ | kon [9]: 183000 M⁻¹ s⁻¹ | Kd [10]: 0.75 nM | koff [10]: 0.00246 s⁻¹ | kon [10]: 3.31e+06 M⁻¹ s⁻¹

B5: aC1s_088 × 531v23 IgG1-NNAS/dK (bispecific antibody, V domains shown)
VH 1: B4 VH 1
VL 1: B4 VL 1
VH 2: B4 VH 2
VL 2: B4 VL 2 with Q55H
notes: IgG1-NNAS Fc, dK, with charge pairing mutations; The starred variable domains are used, as for m5; also called v23 variant
IC50, C3d deposition on neurons in iPSC tricultures with serum [6]: 13.9 µg/mL | fold higher affinity than the 531v25 and 531v25.v6 variants [11]: ~2 fold | IC50, Wieslab Complement Pathway Assay (classical pathway, 1% NHS) [7]: 1.67 µg/mL | Kd [9]: 10.3 nM | koff [9]: 0.00197 s⁻¹ | kon [9]: 192000 M⁻¹ s⁻¹ | Kd [10]: 0.66 nM | koff [10]: 0.00275 s⁻¹ | kon [10]: 4.18e+06 M⁻¹ s⁻¹

B6: aC1s_088 × 531v25.v6 IgG4-PE/dK (bispecific antibody, V domains shown)
VH 1: B4 VH 1
VL 1: B4 VL 1
VH 2: B4 VH 2
VL 2: B4 VL 2 with S30E
notes: IgG4-PE Fc, dK, with charge pairing mutations; The starred variable domains are used, as for m5; also called aC1s_088-CM × 531v25.v6 IgG4
IC50, C3d deposition on neurons in iPSC tricultures with serum [6]: 7.48 µg/mL | IC50, Wieslab Complement Pathway Assay (classical pathway, 1% NHS) [7]: 1.79 µg/mL | Kd [8]: 18.9 nM | Kd [9]: 18.9 nM | koff [9]: 0.00304 s⁻¹ | kon [9]: 161000 M⁻¹ s⁻¹ | Kd [10]: 0.76 nM | koff [10]: 0.00273 s⁻¹ | kon [10]: 3.59e+06 M⁻¹ s⁻¹

More lines, now with the values ahead:

Kd [1]: 52.8 nM | Kd [2]: 29.9 nM | Kd [3]: 0.243 nM | Kd [4]: 3.19 nM | IC50, Wieslab Complement Pathway Assay [5]: 1.37 µg/mL | IC90, Wieslab Complement Pathway Assay [5]: 10.2 µg/mL
B2: bispecific anti-aC1s (L2)/anti-TfR (531v25.v6) antibody (bispecific antibody, human IgG4 S228P, kappa)
heavy 1: B1 heavy 1 with A73D, Q82E
light 1: B1 light 1 with D74A
heavy 2: B1 heavy 2
light 2: B1 light 2
notes: as for B1

Kd [1]: 48.9 nM | Kd [2]: 34.3 nM | Kd [3]: 0.315 nM | Kd [4]: 2.64 nM | IC50, Wieslab Complement Pathway Assay [5]: 1.23 µg/mL | IC90, Wieslab Complement Pathway Assay [5]: 9.7 µg/mL
B3: bispecific anti-aC1s (L2H5)/anti-TfR (531v25.v6) antibody (bispecific antibody, human IgG4 S228P, kappa)
heavy 1: B1 heavy 1
light 1: B1 light 1 with D74A
heavy 2: B1 heavy 2
light 2: B1 light 2
notes: as for B1
